# Data from article PMC9584350.
# Molecular target: Arf6 (co-precipitated with FLAG–AMPKα2 from cells), P62330
# Test: co-immunoprecipitation (IP anti-FLAG, immunoblot for Arf6), band quantification
# Conditions: chain shown with the change; HEK 293T cells transfected with FLAG-AMPKα2 and Arf6-myc; n=4; empty (no FLAG-AMPKα2) control = 1; parent: est. 6.0; read off a plot
# Arf6 (co-precipitated with FLAG–AMPKα2 from cells), P62330, sequence (P62330 whole entry): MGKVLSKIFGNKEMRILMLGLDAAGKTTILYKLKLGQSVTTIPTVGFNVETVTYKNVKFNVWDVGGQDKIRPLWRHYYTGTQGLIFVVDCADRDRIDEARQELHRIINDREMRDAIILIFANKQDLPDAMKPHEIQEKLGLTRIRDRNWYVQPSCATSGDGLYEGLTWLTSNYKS
row,Binder,response
1,"FLAG–AMPKα2-WT, P54646 W402A; H403A; L404A; G405A; I406A (protein) MAEKQKHDGRVKIGHYVLGDTLGVGTFGKVKIGEHQLTGHKVAVKILNRQKIRSLDVVGKIKREIQNLKLFRHPHIIKLYQVISTPTDFFMVMEYVSGGELFDYICKHGRVEEMEARRLFQQILSAVDYCHRHMVVHRDLKPENVLLDAHMNAKIADFGLSNMMSDGEFLRTSCGSPNYAAPEVISGRLYAGPEVDIWSCGVILYALLCGTLPFDDEHVPTLFKKIRGGVFYIPEYLNRSVATLLMHMLQVDPLKRATIKDIREHEWFKQDLPSYLFPEDPSYDANVIDDEAVKEVCEKFECTESEVMNSLYSGDPQDQLAVAYHLIIDNRRIMNQASEFYLASSPPSGSFMDDSAMHIPPGLKPHPERMPPLIADSPKARCPLDALNTTKPKSLAVKKAKAAAAARSQSKPYDIMAEVYRAMKQLDFEWKVVNAYHLRVRRKNPVTGNYVKMSLQLYLVDNRSYLLDFKSIDDEVVEQRSGSSTPQRSCSAAGLHRPRSSFDSTTAESHSLSGSLTGSLTGSTLSSVSPRLGSHTMDFFEMCASLITTLAR",1.4
2,"FLAG–AMPKα2-WT, P54646 E418A; V419A; Y420A; R421A (protein) MAEKQKHDGRVKIGHYVLGDTLGVGTFGKVKIGEHQLTGHKVAVKILNRQKIRSLDVVGKIKREIQNLKLFRHPHIIKLYQVISTPTDFFMVMEYVSGGELFDYICKHGRVEEMEARRLFQQILSAVDYCHRHMVVHRDLKPENVLLDAHMNAKIADFGLSNMMSDGEFLRTSCGSPNYAAPEVISGRLYAGPEVDIWSCGVILYALLCGTLPFDDEHVPTLFKKIRGGVFYIPEYLNRSVATLLMHMLQVDPLKRATIKDIREHEWFKQDLPSYLFPEDPSYDANVIDDEAVKEVCEKFECTESEVMNSLYSGDPQDQLAVAYHLIIDNRRIMNQASEFYLASSPPSGSFMDDSAMHIPPGLKPHPERMPPLIADSPKARCPLDALNTTKPKSLAVKKAKWHLGIRSQSKPYDIMAAAAAAMKQLDFEWKVVNAYHLRVRRKNPVTGNYVKMSLQLYLVDNRSYLLDFKSIDDEVVEQRSGSSTPQRSCSAAGLHRPRSSFDSTTAESHSLSGSLTGSLTGSTLSSVSPRLGSHTMDFFEMCASLITTLAR",1.3
